We go through one molecule from patent US20180291096A1 (Janssen / Centocor, published 2018).

Assay [1] has as its target T1, recombinant human IL-23 (hrIL-23), produced at Centocor (human, UniProt P29460 23-328).
T1 construct: p19-p40 heterodimer; also called rhIL-23; huIL-23
T1 sequence 1: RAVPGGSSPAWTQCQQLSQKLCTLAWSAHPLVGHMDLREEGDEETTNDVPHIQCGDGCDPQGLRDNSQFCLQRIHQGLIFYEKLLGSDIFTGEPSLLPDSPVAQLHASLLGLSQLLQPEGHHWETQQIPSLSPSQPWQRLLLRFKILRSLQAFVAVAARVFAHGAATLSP
T1 sequence 2: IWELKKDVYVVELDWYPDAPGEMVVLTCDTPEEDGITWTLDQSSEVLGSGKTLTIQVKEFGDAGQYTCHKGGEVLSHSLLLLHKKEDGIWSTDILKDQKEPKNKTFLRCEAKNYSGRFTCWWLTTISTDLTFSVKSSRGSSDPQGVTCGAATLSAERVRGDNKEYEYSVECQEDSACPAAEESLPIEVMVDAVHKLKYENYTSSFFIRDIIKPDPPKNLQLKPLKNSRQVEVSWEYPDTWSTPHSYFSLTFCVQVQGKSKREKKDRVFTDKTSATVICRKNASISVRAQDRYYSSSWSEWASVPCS
In words: hrIL-23/hIL-23R competition assay, soluble receptor as reference.

Assay [2] concerns the target T1, recombinant human IL-23 (hrIL-23), …. Description: blocking ELISA (BRBA): biotinylated IL-23 with titrated soluble IL-23R-Fc, binding to plate-immobilized IL-23R-Fc. How it is done:
In this experiment, a human IL-23R-Fc fusion protein was immobilized on a plate. This fusion protein consists of the extracellular domain of human IL-23 receptor fused to a human Fc segment. Biotinylated hrIL-23 was added to the plate either alone or after preincubation with individual IL-23p19 mAbs. Soluble IL-23R (IL-23R-Fc) was used as a positive control. IL-23 binding was detected with HRP-conjugated streptavidin. […] There was no inhibition by B21M, a mAb with unrelated specificity. […] IL-23 binding was inhibited by the p40 neutralizing mAb CNTO 1275 (same as mAb 12A), as expected. […] CNTO 1275 again served as a positive control.

B1: human IL-23R-Fc fusion protein (Fc fusion, UniProt Q5VWK5 24-355, looked up, not shown: a dimerising Fc or GST)
chain: GITNINCSGHIWVEPATIFKMGMNISIYCQAAIKNCQPRKLHFYKNGIKERFQITRINKTTARLWYKNFLEPHASMYCTAECPKHFQETLICGKDISSGYPPDIPDEVTCVIYEYSGNMTCTWNAGKLTYIDTKYVVHVKSLETEEEQQYLTSSYINISTDSLQGGKKYLVWVQAANALGMEESKQLQIHLDDIVIPSAAVISRAETINATVPKTIIYWDSQTTIEKVSCEMRYKATTNQTWNVKEFDTNFTYVQQSEFYLEPNIKYVFQVRCQETGKRYWQPWSSLFFHKTPETVPQVTSKAFQHDTWNSGLTVASISTGHLTSDNRGDIG
notes: extracellular domain; also called hIL-23R; soluble IL-23R
As for B1, the IC50 in assay [1] amounted to 1.8 nM. The “IC50 (read off the curve)” value in assay [2] was about 0.05 µg/mL.
